Measurements from the supplement of paper PMC9112550, “Optimization of the antimicrobial peptide Bac7 by deep mutational scanning” (BMC Biology, 2022).

Tested on: Escherichia coli TOP10
Experiment: shrunken log2 fold change of peptide-encoding DNA abundance (4.5 h post-induction vs induction); higher = less antimicrobial activity (less host growth inhibition)
Conditions: time post-induction: 4.5 h; library: site-saturation at positions 5, 18, 19, 20
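Note: peptides expressed intracellularly from a pBAD plasmid library in pooled LB shake-flask culture, induced with 0.3% L-arabinose, DNA abundance read by NGS, three biological replicates, DESeq2 with apeglm shrinkage.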

Sequence | shrunken log2 fold change
RRIRKRPPRLPRPRPRPMPRPRP | 0.276
RRIRKRPPRLPRPRPRPMQAPRP | 1.15
RRIRKRPPRLPRPRPRPMTSPRP | 0.0716
RRIRKRPPRLPRPRPRPMVLPRP | -0.191
RRIRKRPPRLPRPRPRPMVNPRP | 1.55
RRIRKRPPRLPRPRPRPMVTPRP | 0.231
RRIRKRPPRLPRPRPRPMVYPRP | -0.0451
RRIRKRPPRLPRPRPRPMWCPRP | -0.113
RRIRKRPPRLPRPRPRPMYFPRP | -0.0354
RRIRKRPPRLPRPRPRPNCDPRP | 0.142
RRIRKRPPRLPRPRPRPNCFPRP | 0.274
RRIRKRPPRLPRPRPRPNCKPRP | 0.495
RRIRKRPPRLPRPRPRPNDDPRP | 0.414
RRIRKRPPRLPRPRPRPNDNPRP | -0.076
RRIRKRPPRLPRPRPRPNEDPRP | -0.00122
RRIRKRPPRLPRPRPRPNEPPRP | 0.027
RRIRKRPPRLPRPRPRPNFLPRP | -0.185
RRIRKRPPRLPRPRPRPNGIPRP | -0.029
RRIRKRPPRLPRPRPRPNHCPRP | 0.0144
RRIRKRPPRLPRPRPRPNHFPRP | -2.08
RRIRKRPPRLPRPRPRPNHNPRP | -0.382
RRIRKRPPRLPRPRPRPNIYPRP | -0.275
RRIRKRPPRLPRPRPRPNKCPRP | -0.106
RRIRKRPPRLPRPRPRPNKLPRP | -0.0293
RRIRKRPPRLPRPRPRPNMNPRP | 0.394

Sequence | shrunken log2 fold change
RRIRKRPPRLPRPRPRPNMRPRP | 0.334
RRIRKRPPRLPRPRPRPNNCPRP | -0.256
RRIRKRPPRLPRPRPRPNNEPRP | 0.0823
RRIRKRPPRLPRPRPRPNNRPRP | 0.0938
RRIRKRPPRLPRPRPRPNNTPRP | -0.243
RRIRKRPPRLPRPRPRPNNYPRP | -0.259
RRIRKRPPRLPRPRPRPNPYPRP | -0.384
RRIRKRPPRLPRPRPRPNQSPRP | 0.341
RRIRKRPPRLPRPRPRPNRNPRP | -0.234
RRIRKRPPRLPRPRPRPNTGPRP | 0.382
RRIRKRPPRLPRPRPRPNTVPRP | 0.126
RRIRKRPPRLPRPRPRPNVDPRP | 0.17
RRIRKRPPRLPRPRPRPNYFPRP | -0.303
RRIRKRPPRLPRPRPRPPAAPRP | 0.932
RRIRKRPPRLPRPRPRPPADPRP | 0.563
RRIRKRPPRLPRPRPRPPDHPRP | 0.973
RRIRKRPPRLPRPRPRPPGDPRP | 0.905
RRIRKRPPRLPRPRPRPPHAPRP | 0.728
RRIRKRPPRLPRPRPRPPHQPRP | 0.61
RRIRKRPPRLPRPRPRPPHVPRP | 0.498
RRIRKRPPRLPRPRPRPPIAPRP | 0.464
RRIRKRPPRLPRPRPRPPIHPRP | 0.327
RRIRKRPPRLPRPRPRPPKGPRP | 0.333
RRIRKRPPRLPRPRPRPPKHPRP | 0.723
RRIRKRPPRLPRPRPRPPKKPRP | 0.0439

Sequence | shrunken log2 fold change
RRIRKRPPRLPRPRPRPPLTPRP | 0.542
RRIRKRPPRLPRPRPRPPMIPRP | -0.0795
RRIRKRPPRLPRPRPRPPMMPRP | 0.587
RRIRKRPPRLPRPRPRPPNWPRP | 0.593
RRIRKRPPRLPRPRPRPPPEPRP | 1.32
RRIRKRPPRLPRPRPRPPQPPRP | 0.856
RRIRKRPPRLPRPRPRPPQYPRP | 0.277
RRIRKRPPRLPRPRPRPPRGPRP | 1.13
RRIRKRPPRLPRPRPRPPRLPRP | 0.678
RRIRKRPPRLPRPRPRPPSKPRP | 0.541
RRIRKRPPRLPRPRPRPPTMPRP | 0.412
RRIRKRPPRLPRPRPRPPVAPRP | 0.974
RRIRKRPPRLPRPRPRPPVCPRP | 0.336
RRIRKRPPRLPRPRPRPPVSPRP | 0.0866
RRIRKRPPRLPRPRPRPPWMPRP | 0.48
RRIRKRPPRLPRPRPRPQAQPRP | 0.0703
RRIRKRPPRLPRPRPRPQCDPRP | 0.279
RRIRKRPPRLPRPRPRPQDGPRP | 0.013
RRIRKRPPRLPRPRPRPQFLPRP | 0.0482
RRIRKRPPRLPRPRPRPQFRPRP | 0.0319
RRIRKRPPRLPRPRPRPQHKPRP | 0.196
RRIRKRPPRLPRPRPRPQHPPRP | 0.105
RRIRKRPPRLPRPRPRPQIDPRP | 0.00239
RRIRKRPPRLPRPRPRPQKHPRP | 0.224
RRIRKRPPRLPRPRPRPQLQPRP | 0.199

Sequence | shrunken log2 fold change
RRIRKRPPRLPRPRPRPQPTPRP | 0.5
RRIRKRPPRLPRPRPRPQQNPRP | 0.157
RRIRKRPPRLPRPRPRPQRAPRP | 0.944
RRIRKRPPRLPRPRPRPQREPRP | 0.749
RRIRKRPPRLPRPRPRPQRHPRP | 1.73
RRIRKRPPRLPRPRPRPQRMPRP | 0.408
RRIRKRPPRLPRPRPRPQRTPRP | 0.419
RRIRKRPPRLPRPRPRPQTWPRP | 0.134
RRIRKRPPRLPRPRPRPQVQPRP | 0.131
RRIRKRPPRLPRPRPRPQVVPRP | -0.0176
RRIRKRPPRLPRPRPRPQWIPRP | 0.00082
RRIRKRPPRLPRPRPRPQYEPRP | 0.0265
RRIRKRPPRLPRPRPRPRCKPRP | 0.00437
RRIRKRPPRLPRPRPRPRCSPRP | 0.305
RRIRKRPPRLPRPRPRPRECPRP | -0.0199
RRIRKRPPRLPRPRPRPRFNPRP | 0.0969
RRIRKRPPRLPRPRPRPRGDPRP | 0.396
RRIRKRPPRLPRPRPRPRGIPRP | 0.0697
RRIRKRPPRLPRPRPRPRGVPRP | 0.782
RRIRKRPPRLPRPRPRPRHDPRP | 0.254
RRIRKRPPRLPRPRPRPRIPPRP | 0.11
RRIRKRPPRLPRPRPRPRIWPRP | 0.434
RRIRKRPPRLPRPRPRPRKDPRP | 0.222
RRIRKRPPRLPRPRPRPRLAPRP | 0.772
RRIRKRPPRLPRPRPRPRLKPRP | 0.365

Sequence | shrunken log2 fold change
RRIRKRPPRLPRPRPRPRLMPRP | 0.989
RRIRKRPPRLPRPRPRPRLQPRP | 0.475
RRIRKRPPRLPRPRPRPRLTPRP | 0.501
RRIRKRPPRLPRPRPRPRMDPRP | 0.236
RRIRKRPPRLPRPRPRPRNDPRP | 0.352
RRIRKRPPRLPRPRPRPRNGPRP | 0.157
RRIRKRPPRLPRPRPRPRNKPRP | -0.08
RRIRKRPPRLPRPRPRPRPVPRP | 0.732
RRIRKRPPRLPRPRPRPRQDPRP | -0.0954
RRIRKRPPRLPRPRPRPRRHPRP | 0.523
RRIRKRPPRLPRPRPRPRSWPRP | 0.833
RRIRKRPPRLPRPRPRPRTTPRP | 0.792
RRIRKRPPRLPRPRPRPRWKPRP | 0.702
RRIRKRPPRLPRPRPRPRWQPRP | 0.189
RRIRKRPPRLPRPRPRPRWRPRP | 0.658
RRIRKRPPRLPRPRPRPSCAPRP | 0.523
RRIRKRPPRLPRPRPRPSCMPRP | -0.0405
RRIRKRPPRLPRPRPRPSCRPRP | 0.0107
RRIRKRPPRLPRPRPRPSCTPRP | 0.0868
RRIRKRPPRLPRPRPRPSEAPRP | 0.401
RRIRKRPPRLPRPRPRPSEDPRP | -0.0464
RRIRKRPPRLPRPRPRPSERPRP | 0.317
RRIRKRPPRLPRPRPRPSFYPRP | -0.391
RRIRKRPPRLPRPRPRPSGNPRP | 0.267
RRIRKRPPRLPRPRPRPSIQPRP | -0.149

Sequence | shrunken log2 fold change
RRIRKRPPRLPRPRPRPSNMPRP | -0.327
RRIRKRPPRLPRPRPRPSNYPRP | -0.312
RRIRKRPPRLPRPRPRPSQCPRP | 0.127
RRIRKRPPRLPRPRPRPSQRPRP | 0.231
RRIRKRPPRLPRPRPRPSRFPRP | 1.06
RRIRKRPPRLPRPRPRPSTHPRP | -0.17
RRIRKRPPRLPRPRPRPSVRPRP | 0.528
RRIRKRPPRLPRPRPRPSWDPRP | -0.164
RRIRKRPPRLPRPRPRPSWHPRP | -0.0776
RRIRKRPPRLPRPRPRPSWMPRP | 0.93
RRIRKRPPRLPRPRPRPSWNPRP | -0.15
RRIRKRPPRLPRPRPRPSWPPRP | 0.321
RRIRKRPPRLPRPRPRPSWSPRP | -0.075
RRIRKRPPRLPRPRPRPSYGPRP | -0.141
RRIRKRPPRLPRPRPRPSYKPRP | -0.692
RRIRKRPPRLPRPRPRPSYRPRP | 0.0249
RRIRKRPPRLPRPRPRPSYTPRP | -0.0235
RRIRKRPPRLPRPRPRPTCEPRP | 0.793
RRIRKRPPRLPRPRPRPTCGPRP | 0.561
RRIRKRPPRLPRPRPRPTCYPRP | 0.0572
RRIRKRPPRLPRPRPRPTDCPRP | -0.0167
RRIRKRPPRLPRPRPRPTDFPRP | 0.118
RRIRKRPPRLPRPRPRPTDNPRP | 0.219
RRIRKRPPRLPRPRPRPTDRPRP | 0.209
RRIRKRPPRLPRPRPRPTEFPRP | 0.00591
